Read-outs that look alike come from different tables or passages of the source.
Tests used:
[1] = target: H6-spTorA-mCherry (E. coli | not stated); test: SEC; fractions 19-21 of the purified 1:1 TorD/spTorA-mCherry complex pooled, centrifuged and at once re-run on the column (~2.3-3.5 μM total TorD); KD estimated from the ratio of the peaks
[2] = target: TorD-H6 (Escherichia coli TorD, 6xHis tagged) (E. coli) (UniProt P36662); test: SEC; Ni-NTA purified TorD alone, ~170 μM total load; Superdex 75 10/300 GL, FPLC buffer (5 mM MgCl2, 150 mM NaCl, 25 mM MOPS, 25 mM MES, 25% glycerol, pH 8.0), 5 mM DTT, 4°C; dimer to monomers, KD estimated from the monomer/dimer ratio
[3] = target: H6-spTorA-mCherry (E. coli | not stated); test: SEC; substrate (~7 μM) mixed with TorD 1:1 or 1:2, 10 min at 37°C in FPLC buffer with 5 mM DTT, then Superdex 75 at 4°C; fractions analysed by anti-6xHis Western blot
[4] = target: spTorA-GFP(Alexa532) (E. coli | not stated); test: co-sedimentation; competition, apparent KD: spTorA-GFP(Alexa532) 50 nM pre-incubated with various concentrations of TorD (10 min, 37°C), then with Tat++ IMVs (A280 = 5; 10 min, 37°C), pelleted (32,000 g, 4°C, 10 min); IMV-bound precursor by in-gel fluorescence; high-BSA translocation buffer
[5] = target: spTorA-GFP(Alexa532) (E. coli | not stated); test: as above; remark: listed apart in the source

Chain of spTorA-GFP(Alexa532) (E. coli | not stated) (P33225 1-39, tags left off): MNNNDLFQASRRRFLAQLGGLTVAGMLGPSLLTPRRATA
Chain of H6-spTorA-mCherry (E. coli | not stated) (P33225 1-39 limits assumed): as the sequence (P33225 1-39, tags left off) above

B1: TorD-H6 (Escherichia coli TorD, 6xHis tagged) (natural protein)
chain: MTTLTAQQIACVYAWLAQLFSRELDDEQLTQIASAQMAEWFSLLKSEPPLTAAVNELENRIATLTVRDDARLELAADFCGLFLMTDKQAALPYASAYKQDEQEIKRLLVEAGMETSGNFNEPADHLAIYLELLSHLHFSLGEGTVPARRIDSLRQKTLTALWQWLPEFVARCRQYDSFGFYAALSQLLLVLVECDHQNR
Question: Which results are given for B1?
Answer: Kd [1]: 1500 nM; Kd [2]: > 50 µM; stoichiometry N [3]: 1; Kd [4]: 1300 nM; percent inhibition of spTorA-GFP binding to Tat++ IMVs at ~1 μM TorD [4]: 50%; Kd [5]: 800 nM
